B1: Soluble LRP1 cluster IV (domain or fragment)
chain: not shown
notes: four amino acids naturally located in full-length LRP1 after the cleavage site of the signal peptide; numbers count on: the mature protein; introduced by the cloning process (BamHI site); LRP1 cluster IV, 11 CR modules (CR21-31), human; Secreted with the LRP1 signal peptide, which is cleaved; Glycosylated: 62,528 Da by MALDI; also called CR21-31
B2: Soluble LRP1 cluster II (domain or fragment, human)
chain: AIDAGSPQCQPGEFACANSRCIQERWKCDGDNDCLDNSDEAPALCHQHTCPSDRFKCENNRCIPNRWLCDGDNDCGNSEDESNATCSARTCPPNQFSCASGRCIPISWTCDLDDDCGDRSDESASCAYPTCFPLTQFTCNNGRCININWRCDNDNDCGDNSDEAGCSHSCSSTQFKCNSGRCIPEHWTCDGDNDCGDYSDETHANCTNQATRPPGGCHTDEFQCRLDGLCIPLRWRCDGDTDCMDSSDEKSCEGVTHVCDPSVKFGCKDSARCISKAWVCDGDNDCEDNSDEENCESLACRPPSHPCANNTSVCLPPDKLCDGNDDCGDGSDEGELC
notes: four amino acids naturally located in full-length LRP1 after the cleavage site of the signal peptide; numbers count on: the mature protein; introduced by the cloning process (BamHI site); LRP1 cluster II, 8 CR modules (CR3-10), human; Secreted with the LRP1 signal peptide, which is cleaved; Glycosylated: 50,372 Da by MALDI; also called CR3-10

Experiments:
Settings in all cases: both partners purified
[1] = target: T1, Recombinant C1q (wild type) (UniProt P02745 23-245; P02746 28-253; P02747 29-245); experiment: SPR; T200; serum C1q (14,000 RU), rC1q WT (11,000 RU) or rC1qABC (12,300 RU) immobilised on CM5; clusters II and IV injected in 50 mM Tris, 150 mM NaCl, 2 mM CaCl2, 0.05% P20, pH 7.4, 180 s at 30 µl/min; KD by steady state analysis
T1 construct: complement C1q, A chain, recombinant; complement C1q, B chain, recombinant; complement C1q, C chain, recombinant; none of these is told here; also called rC1q WT; wild-type C1q; source: produced and purified as described in Bally et al. (16); copies: 6 + 6 + 6

[2] = target: T2, C1q purified from human serum (human, UniProt P02745 23-245; P02746 28-253; P02747 29-245); experiment: as above
T2 construct: complement C1q, A chain, human, from serum; complement C1q, B chain, human, from serum; complement C1q, C chain, human, from serum; also called serum C1q; sC1q; source: purified from human serum; copies: 6 + 6 + 6

[3] = target: T3, C1q mutant LysA59Ala/LysB61Ala/LysC58Ala (UniProt P02745 23-245; P02746 28-253; P02747 29-245, LysA59Ala | LysB61Ala | LysC58Ala); experiment: as above
T3 construct: complement C1q, A chain, recombinant; complement C1q, B chain, recombinant; complement C1q, C chain, recombinant; also called rC1qABC; rC1q ABC; source: produced and purified as described in Bally et al. (16); copies: 6 + 6 + 6

[4] = target: T2, C1q purified from human serum; experiment: SPR; T200; cluster II (1,230 RU) or cluster IV (1,270 RU) immobilised on CM5; serum C1q, CLR or GR injected in 50 mM Tris, 150 mM NaCl, 2 mM CaCl2, 0.05% P20, pH 7.4, 30 µl/min; KD from C1q 0.125-8 nM by steady state analysis; for competition C1q pre-incubated 15 min at 25°C with C1r2s2
Soluble LRP1 cluster II = target: B2; experiment: SPR; BIAcore 3000; full-length (ecto) LRP1 (7,400 RU) or clusters II (2,967 RU), III (3,460 RU), IV (3,396 RU) immobilised on CM5 by amine coupling; RAP 0.25-16 nM injected in 50 mM TEA, 150 mM NaCl, 1 mM CaCl2, 0.005% P20, pH 7.4, 20 µl/min; global fit, 1:1 Langmuir
Soluble LRP1 cluster III = target: T4, Soluble LRP1 cluster III (human, UniProt Q07954 2522-2940); experiment: as above
T4 construct: four amino acids naturally located in full-length LRP1 after the cleavage site of the signal peptide; numbers count on: the mature protein; introduced by the cloning process (BamHI site); LRP1 cluster III, 10 CR modules (CR11-20), human; Secreted with the LRP1 signal peptide, which is cleaved; Glycosylated: 63,734 Da by MALDI; also called CR11-20

Soluble LRP1 cluster IV = target: B1; experiment: as above
Sequence of Soluble LRP1 cluster IV (Q07954 other isoform, or with tags, fused parts or gaps): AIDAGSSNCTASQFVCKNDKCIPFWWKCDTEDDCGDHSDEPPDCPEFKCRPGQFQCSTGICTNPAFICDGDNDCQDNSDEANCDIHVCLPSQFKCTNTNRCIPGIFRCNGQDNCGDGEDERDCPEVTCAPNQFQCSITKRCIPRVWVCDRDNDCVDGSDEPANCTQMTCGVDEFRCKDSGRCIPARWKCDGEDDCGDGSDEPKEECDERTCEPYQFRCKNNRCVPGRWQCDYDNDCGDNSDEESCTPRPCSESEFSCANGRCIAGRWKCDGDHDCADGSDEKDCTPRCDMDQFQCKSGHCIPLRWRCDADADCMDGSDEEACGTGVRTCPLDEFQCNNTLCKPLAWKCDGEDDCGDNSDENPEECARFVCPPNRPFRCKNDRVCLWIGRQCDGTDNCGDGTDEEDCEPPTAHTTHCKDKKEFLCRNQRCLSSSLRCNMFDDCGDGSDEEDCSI

[5] = target: T5, Full-length LRP1 (soluble LRP1) (human, UniProt Q07954 20-4419); experiment: as above
T5 construct: LDL receptor-related protein 1 (LRP1, CD91), soluble form called ecto-LRP1; also called ecto-LRP1; ecto LRP1; source: produced and purified according to De Nardis et al. (15)
T5 sequence (Q07954 20-4419): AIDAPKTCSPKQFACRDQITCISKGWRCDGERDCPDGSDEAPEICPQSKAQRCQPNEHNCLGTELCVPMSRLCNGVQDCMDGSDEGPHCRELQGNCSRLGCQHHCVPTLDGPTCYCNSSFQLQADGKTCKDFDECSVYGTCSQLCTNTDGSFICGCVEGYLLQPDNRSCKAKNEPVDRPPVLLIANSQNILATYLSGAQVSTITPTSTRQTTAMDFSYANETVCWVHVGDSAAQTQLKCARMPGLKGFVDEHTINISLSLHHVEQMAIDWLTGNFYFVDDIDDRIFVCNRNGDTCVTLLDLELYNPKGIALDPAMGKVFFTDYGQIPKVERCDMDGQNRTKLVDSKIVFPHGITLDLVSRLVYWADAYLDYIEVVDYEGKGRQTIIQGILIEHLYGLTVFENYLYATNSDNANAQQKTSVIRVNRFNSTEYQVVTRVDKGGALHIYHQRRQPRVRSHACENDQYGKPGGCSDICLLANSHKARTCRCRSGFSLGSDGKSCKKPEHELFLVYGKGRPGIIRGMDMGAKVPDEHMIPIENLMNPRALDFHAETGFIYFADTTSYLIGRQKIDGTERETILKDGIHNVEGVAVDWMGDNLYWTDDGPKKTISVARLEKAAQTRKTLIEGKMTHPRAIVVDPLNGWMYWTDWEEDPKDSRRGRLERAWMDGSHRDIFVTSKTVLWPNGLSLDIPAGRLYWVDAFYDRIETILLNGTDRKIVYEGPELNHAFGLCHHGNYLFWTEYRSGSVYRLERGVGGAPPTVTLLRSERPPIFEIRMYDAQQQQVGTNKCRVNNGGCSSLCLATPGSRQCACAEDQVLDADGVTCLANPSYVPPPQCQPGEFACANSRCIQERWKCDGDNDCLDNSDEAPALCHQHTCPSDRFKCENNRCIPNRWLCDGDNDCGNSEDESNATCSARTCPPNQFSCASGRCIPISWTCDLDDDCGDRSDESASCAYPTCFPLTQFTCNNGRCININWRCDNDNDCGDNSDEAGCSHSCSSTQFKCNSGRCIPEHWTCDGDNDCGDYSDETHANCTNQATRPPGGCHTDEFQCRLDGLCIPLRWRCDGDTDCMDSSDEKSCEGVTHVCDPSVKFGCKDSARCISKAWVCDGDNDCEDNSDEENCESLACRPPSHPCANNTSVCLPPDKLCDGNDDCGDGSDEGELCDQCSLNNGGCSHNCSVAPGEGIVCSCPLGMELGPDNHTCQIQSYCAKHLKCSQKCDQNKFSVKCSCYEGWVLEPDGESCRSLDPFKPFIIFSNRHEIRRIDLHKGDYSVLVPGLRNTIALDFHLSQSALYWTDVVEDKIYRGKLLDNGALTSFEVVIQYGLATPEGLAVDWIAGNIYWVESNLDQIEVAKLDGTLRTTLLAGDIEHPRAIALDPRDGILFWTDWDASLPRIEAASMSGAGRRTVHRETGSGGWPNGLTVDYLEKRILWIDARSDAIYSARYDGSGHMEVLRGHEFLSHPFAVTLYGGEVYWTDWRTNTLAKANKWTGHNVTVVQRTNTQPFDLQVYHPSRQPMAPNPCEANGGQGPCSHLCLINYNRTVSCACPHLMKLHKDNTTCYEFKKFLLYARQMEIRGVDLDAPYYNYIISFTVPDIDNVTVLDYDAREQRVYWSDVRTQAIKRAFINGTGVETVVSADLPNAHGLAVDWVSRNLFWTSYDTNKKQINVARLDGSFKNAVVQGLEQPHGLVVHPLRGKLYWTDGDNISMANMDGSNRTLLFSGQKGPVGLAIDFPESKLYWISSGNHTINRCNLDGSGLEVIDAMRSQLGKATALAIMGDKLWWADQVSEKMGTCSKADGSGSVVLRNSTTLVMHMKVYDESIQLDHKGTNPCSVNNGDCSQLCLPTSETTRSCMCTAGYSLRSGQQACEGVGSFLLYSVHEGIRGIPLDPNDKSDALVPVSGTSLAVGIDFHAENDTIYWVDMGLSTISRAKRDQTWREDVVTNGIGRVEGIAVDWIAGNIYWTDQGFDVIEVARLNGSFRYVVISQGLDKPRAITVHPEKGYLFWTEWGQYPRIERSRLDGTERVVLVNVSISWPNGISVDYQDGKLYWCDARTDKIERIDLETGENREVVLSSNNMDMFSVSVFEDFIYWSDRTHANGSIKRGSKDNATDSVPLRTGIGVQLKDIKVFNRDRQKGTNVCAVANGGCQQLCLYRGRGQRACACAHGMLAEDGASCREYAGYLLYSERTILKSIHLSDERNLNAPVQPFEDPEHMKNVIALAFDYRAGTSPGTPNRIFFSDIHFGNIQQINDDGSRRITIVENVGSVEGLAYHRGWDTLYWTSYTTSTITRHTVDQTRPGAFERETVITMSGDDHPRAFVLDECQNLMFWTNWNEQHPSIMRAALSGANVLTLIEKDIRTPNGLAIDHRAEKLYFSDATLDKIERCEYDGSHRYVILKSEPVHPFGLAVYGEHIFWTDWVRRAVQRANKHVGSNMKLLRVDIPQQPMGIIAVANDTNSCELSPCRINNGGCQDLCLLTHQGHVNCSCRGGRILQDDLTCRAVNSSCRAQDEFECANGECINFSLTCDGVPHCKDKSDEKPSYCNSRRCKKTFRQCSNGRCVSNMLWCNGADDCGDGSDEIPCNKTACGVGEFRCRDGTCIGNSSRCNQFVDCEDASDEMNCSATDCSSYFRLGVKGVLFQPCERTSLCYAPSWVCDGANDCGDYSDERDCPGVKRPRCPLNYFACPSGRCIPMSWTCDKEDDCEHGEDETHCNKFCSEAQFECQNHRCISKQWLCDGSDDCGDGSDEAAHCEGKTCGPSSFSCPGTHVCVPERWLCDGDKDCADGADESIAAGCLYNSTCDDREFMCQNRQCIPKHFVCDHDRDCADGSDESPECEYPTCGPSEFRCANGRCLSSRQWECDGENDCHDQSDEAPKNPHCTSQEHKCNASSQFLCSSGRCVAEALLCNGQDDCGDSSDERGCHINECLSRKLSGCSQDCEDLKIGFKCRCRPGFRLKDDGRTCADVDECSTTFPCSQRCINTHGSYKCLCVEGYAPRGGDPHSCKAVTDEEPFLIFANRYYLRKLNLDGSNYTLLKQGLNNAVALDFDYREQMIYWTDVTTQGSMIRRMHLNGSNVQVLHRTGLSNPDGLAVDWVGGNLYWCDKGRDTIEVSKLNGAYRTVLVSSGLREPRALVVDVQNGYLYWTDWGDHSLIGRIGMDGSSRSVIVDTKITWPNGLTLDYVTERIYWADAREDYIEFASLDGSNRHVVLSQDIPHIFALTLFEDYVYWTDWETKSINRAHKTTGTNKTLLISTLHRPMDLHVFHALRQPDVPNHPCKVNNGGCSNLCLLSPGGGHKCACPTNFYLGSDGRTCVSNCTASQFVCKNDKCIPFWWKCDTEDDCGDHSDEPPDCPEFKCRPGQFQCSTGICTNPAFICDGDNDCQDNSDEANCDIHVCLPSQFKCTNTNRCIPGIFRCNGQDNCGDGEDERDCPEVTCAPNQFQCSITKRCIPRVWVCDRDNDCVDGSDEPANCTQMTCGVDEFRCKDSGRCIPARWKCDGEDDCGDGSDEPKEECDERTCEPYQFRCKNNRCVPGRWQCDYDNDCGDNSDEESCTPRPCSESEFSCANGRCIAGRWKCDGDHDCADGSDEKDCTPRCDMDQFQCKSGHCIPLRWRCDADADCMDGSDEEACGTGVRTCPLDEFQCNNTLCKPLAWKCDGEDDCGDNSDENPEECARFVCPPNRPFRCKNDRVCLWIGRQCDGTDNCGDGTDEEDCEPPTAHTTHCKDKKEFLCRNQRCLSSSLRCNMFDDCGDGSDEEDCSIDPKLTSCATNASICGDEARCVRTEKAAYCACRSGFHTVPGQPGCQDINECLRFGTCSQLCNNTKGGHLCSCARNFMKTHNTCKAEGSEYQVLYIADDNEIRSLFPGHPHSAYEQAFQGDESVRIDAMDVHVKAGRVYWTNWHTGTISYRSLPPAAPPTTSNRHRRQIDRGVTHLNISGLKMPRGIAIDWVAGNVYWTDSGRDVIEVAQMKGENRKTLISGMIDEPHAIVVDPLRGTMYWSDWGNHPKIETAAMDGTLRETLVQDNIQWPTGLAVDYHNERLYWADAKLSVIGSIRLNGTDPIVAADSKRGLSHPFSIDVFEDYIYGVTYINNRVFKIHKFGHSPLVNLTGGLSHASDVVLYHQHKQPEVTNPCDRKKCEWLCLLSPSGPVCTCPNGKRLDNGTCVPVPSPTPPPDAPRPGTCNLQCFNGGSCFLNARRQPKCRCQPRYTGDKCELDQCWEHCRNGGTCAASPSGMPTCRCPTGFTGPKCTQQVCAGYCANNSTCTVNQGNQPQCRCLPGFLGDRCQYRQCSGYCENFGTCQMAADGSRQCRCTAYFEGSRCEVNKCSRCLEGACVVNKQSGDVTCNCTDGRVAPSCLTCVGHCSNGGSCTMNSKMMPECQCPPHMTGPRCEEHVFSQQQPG

Question: Which results are given for B1?
Answer: Kd [1]: 183 nM; Kd [2]: 158 nM; Kd [3]: 222 nM; Kd [4]: 0.69 nM

Question: B2 was tested. Which Kd [1] did it give?
Answer: Its Kd is 318 nM.

Question: What about the Kd [2] of the same binder?
Answer: Its Kd is 275 nM.

Question: And the Kd [3]?
Answer: Its Kd is 514 nM.

Question: And the Kd [4]?
Answer: Its Kd is 3.49 nM.

B3: Receptor-associated protein (RAP) (natural protein, UniProt P30533 35-357, looked up)
chain: YSREKNQPKPSPKRESGEEFRMEKLNQLWEKAQRLHLPPVRLAELHADLKIQERDELAWKKLKLDGLDEDGEKEARLIRNLNVILAKYGLDGKKDARQVTSNSLSGTQEDGLDDPRLEKLWHKAKTSGKFSGEELDKLWREFLHHKEKVHEYNVLLETLSRTEEIHENVISPSDLSDIKGSVLHSRHTELKEKLRSINQGLDRLRRVSHQGYSTEAEFEEPRVIDLWDLAQSANLTDKELEAFREELKHFEAKIEKHNHYQKQLEIAHEKLRHAESVGDGERVSRSREKHALLEGRTKELGYTVKKHLQDLSGRISRARHNEL
notes: receptor-associated protein (RAP), chaperone of 39 kDa of LRP1; Y'; The printed 'Y' may be the first residue of mature RAP (surmise)
Question: What does the source list for B3?
Answer: Kd (Soluble LRP1 cluster II): 1.09 nM; koff (Soluble LRP1 cluster II): 0.00196 s⁻¹; kon (Soluble LRP1 cluster II): 2.2e+06 M⁻¹ s⁻¹; Kd (Soluble LRP1 cluster III): 1.06 nM; koff (Soluble LRP1 cluster III): 0.00308 s⁻¹; kon (Soluble LRP1 cluster III): 2.95e+06 M⁻¹ s⁻¹; Kd (Soluble LRP1 cluster IV): 1.28 nM; koff (Soluble LRP1 cluster IV): 0.00147 s⁻¹; kon (Soluble LRP1 cluster IV): 1.18e+06 M⁻¹ s⁻¹; Kd [5]: 0.76 nM; koff [5]: 0.00105 s⁻¹; kon [5]: 1.41e+06 M⁻¹ s⁻¹

From PMC7609443, “Complement C1q Interacts With LRP1 Clusters II and IV Through a Site Close but Different From the Binding Site of Its C1r and C1s-Associated Proteases” (Frontiers in Immunology, 2020)
